The source of these data is patent US20100317054A1 (VIRGINIA TECH INTELLECTUAL PROPERTIES, published 2010).

The labels stand for the following.
B1: human ICAM-2-Fc chimera (Fc fusion, UniProt P13598 25-223, looked up)
chain: KVFEVHVRPKKLAVEPKGSLEVNCSTTCNQPEVGGLETSLDKILLDEQAQWKHYLVSNISHDTVLQCHFTCSGKQESMNSNVSVYQPPRQVILTLQPTLVAVGKSFTIECRVPTVEPLDSLTLFLFRGNETLHYETFGKAAPAPQEATATFNSTADREDGHRNFSCLAVLDLMSRGGNIFHKHSAPKMLEIYEPVSDSQ
notes: Bought from R&D Systems; soluble immunoadhesin; also called hICAM2-Fc; hICAM-2-Fc; not shown: human IgG Fc (detected with anti-human IgG Fc antibody)
B3: human DC-SIGN (receptor, UniProt Q9NNX6 1-404, looked up)
chain: MSDSKEPRLQQLGLLEEEQLRGLGFRQTRGYKSLAGCLGHGPLVLQLLSFTLLAGLLVQVSKVPSSISQEQSRQDAIYQNLTQLKAAVGELSEKSKLQEIYQELTQLKAAVGELPEKSKLQEIYQELTRLKAAVGELPEKSKLQEIYQELTWLKAAVGELPEKSKMQEIYQELTRLKAAVGELPEKSKQQEIYQELTRLKAAVGELPEKSKQQEIYQELTRLKAAVGELPEKSKQQEIYQELTQLKAAVERLCHPCPWEWTFFQGNCYFMSNSQRNWHDSITACKEVGAQLVVIKSAEEQNFLQLQSSRSNRFTWMGLSDLNQEGTWQWVDGSPLLPSFKQYWNRGEPNNVGEEDCAEFSGNGWNDDKCNLAKFWICKKSAASCSRDEEQFLSPAPATPNPPPA
notes: whole, on cells; Positive control cell line; also called hDC-SIGN; CD209

In the experiment “human DC-SIGN” the target is B3. Description: flow cytometry histograms, FIGS. 8b-8e. The source says:
(§1) FIGS. 8a to 8e show the binding of human ICAM-3 and ICAM-2 immunoadhesins to BHK cells stably expressing pDC-SIGN. FIG. 8a provides the detection of surface expression of pDC-SIGN protein on stable BHK cell lines. BHK-21, and unsorted or sorted BHK-PDCS cell lines were stained with anti-pDC-SIGN antibody and FITC-labeled goat anti-rabbit IgG, respectively, and analyzed by flow cytometry. Dashed open histograms represented the background staining The expression of pDC-SIGN was indicated by the cross-hatched histograms. Expression of hDC-SIGN on the surface of 3T3-HDCS cell line was also verified by staining with a hDC-SIGN monoclonal antibody (right, bottom panel). FIGS. 8b to 8e illustrate the calcium-dependent binding of human ICAM-3 and ICAM-2 immunoadhesins to BHK-PDCS and 3T3-HDCS cells. Dashed open histograms represent cells staining only with a FITC labeled anti-human IgG Fc antibody. Results are representative of three independent experiments. Data are expressed as histogram analysis of 10,000 cells.
(§2) Human ICAM-3 and ICAM-2 binding assay: Adhesion of human ICAM-3 or ICAM-2 to pDC-SIGN proteins was assessed with BHK-PDCS and BHK-21 cells by measuring detectable cells that bound the soluble immunoadhesins through FACS analysis. 3T3-HDCS cells were used as the positive control. […] Fluorescence was monitored using FACSAria (BD Biosciences, San Jose, Calif.).

For experiment [1], the target named is T1, recombinant human IgG1 Fc (human, UniProt P01857-1 100-330 = IgG part).
T1 construct: domain: Fc; Negative control for the ICAM-Fc chimeras; also called hFc
The experiment can be described thus: flow cytometry on BHK-PDCS cells, FITC anti-human IgG Fc detection. How it is done: (§3) Human ICAM-3 and ICAM-2 binding assay: Adhesion of human ICAM-3 or ICAM-2 to pDC-SIGN proteins was assessed with BHK-PDCS and BHK-21 cells by measuring detectable cells that bound the soluble immunoadhesins through FACS analysis. 3T3-HDCS cells were used as the positive control. Cells (1˜3×10⁵ per sample) were resuspended in 100 μL PBS containing 2% FBS and incubated for 60 min at 4° C. with 1 μg of recombinant human IgG₁ Fc (hFc), human ICAM-3-Fc (hICAM3-Fc) chimera or hICAM2-Fc chimera (R&D Systems, Minneapolis, Minn.) in the presence or absence of mannan (100 μg/mL) or ethylene glycol tetraacetic acid (EGTA, 10 mM). Cells were then washed twice and incubated for another 45 min at 4° C. with 0.5 μg of FITC-labeled anti-human IgG Fc antibody (KPL, Inc., Gaithersburg, Md.) in 100 μL PBS containing 2% FBS. Fluorescence was monitored using FACSAria (BD Biosciences, San Jose, Calif.).
Background: Flow cytometry measures light scatter and fluorescence of single cells or particles in a stream.

In the experiment “human ICAM-2-Fc chimera” the target is B1. The experiment can be described thus: flow cytometry on BHK-PDCS cells, 1 ug Fc chimera, FITC anti-human IgG Fc.
Excerpt: as §1, §2

Experiment [2] has as its target T2, human ICAM-3-Fc chimera (human, UniProt P32942 30-485, limits assumed).
T2 construct: Bought from R&D Systems; soluble immunoadhesin; also called hICAM3-Fc; hICAM-3-Fc; not shown: human IgG Fc (detected with anti-human IgG Fc antibody)
T2 sequence (looked up): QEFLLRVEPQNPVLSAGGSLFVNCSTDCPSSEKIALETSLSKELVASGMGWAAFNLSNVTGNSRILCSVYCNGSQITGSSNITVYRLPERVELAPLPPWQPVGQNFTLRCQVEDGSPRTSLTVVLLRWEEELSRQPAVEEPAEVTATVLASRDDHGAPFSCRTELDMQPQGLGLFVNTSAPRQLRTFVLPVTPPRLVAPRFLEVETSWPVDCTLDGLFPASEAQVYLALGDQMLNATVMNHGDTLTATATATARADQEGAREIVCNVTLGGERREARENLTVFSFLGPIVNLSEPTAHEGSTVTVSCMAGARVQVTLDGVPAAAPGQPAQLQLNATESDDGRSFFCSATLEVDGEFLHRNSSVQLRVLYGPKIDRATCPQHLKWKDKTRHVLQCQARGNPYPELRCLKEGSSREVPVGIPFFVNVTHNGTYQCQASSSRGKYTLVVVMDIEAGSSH
The description is as above.
Excerpt: as §1, §2

The target in experiment [3] is T1, recombinant human IgG1 Fc. Description: flow cytometry on 3T3-HDCS cells, FITC anti-human IgG Fc detection. How it is done: as §3
For experiment [4], the target named is T2, human ICAM-3-Fc chimera. Description: flow cytometry on 3T3-HDCS cells, 1 ug Fc chimera, FITC anti-human IgG Fc.
Excerpt: as §1, §2

On to B1, for which the binding result with human DC-SIGN is recorded as “binds”.

B2: porcine DC-SIGN (receptor)
chain: MAEICDPKEPEEKTWTGPVLVERDLGLLRRLRNSPGCLTWPLLLLLLFVSLGFFMLLVTTLVQVSRIHQSLQRERETSRRPTAQEKIQSSLDKFLQQMTWMNATLAGLCHPCPWHWEFFQGRCYLFSQTQSDWKSSLSACKDIGAQLVIINSTAEQKFLKSWYVRYNKATWIGLSDDTNEGSWQWVDNSPLQLSFWKEGEPNNHGDEDCAELHNDGWNDSKCTVENAWICEKPSSPCPML
notes: In the Western blot it stood in a cell lysate (band of about 48 kDa, probably glycosylated); also called pDC-SIGN; BHK-PDCS (BHK-21 cells stably expressing it)
B2: the results for the binding result (in experiment [1]; with human ICAM-2-Fc chimera; in the experiment with human ICAM-3-Fc chimera [2]) were “no binding (tested: 1 ug in 100 uL)”, “binds” and “binds”, respectively.

Take B3: the binding result in experiment [3] is “no binding (tested: 1 ug in 100 uL)”; with human ICAM-3-Fc chimera [4] it was “binds”.
